# Molecular target: T1, gp140^prototrk (Rattus norvegicus, UniProt P35739)
# T1 construct: tyrosine phosphorylation in response to NGF addition to PC12 cells; endogenous in cells; host or cells: PC12 cells
# Assay: trk tyrosine phosphorylation in PC12 cells treated with NGF (32P labelling / Ptyr immunoblot of trk immunoprecipitates)
# Type: cell-based
# Experimental: FIGS. 1A-C show the tyrosine phosphorylation of gp140trk in PC12 cells and trk-expressing NIH-3T3 cells treated with NGF. FIG. 1A, gp140trk immunoprecipitated from PC12 cells or trk-expressing 3T3 cells labeled with ^32 P-orthophosphate. Immunoprecipitates were prepared with rabbit anti-trk antisera 43-4 (D. Martin-Zanca et al., Mol Cell. Biol. 9:24-33 (1989)) from lysates prepared from 3T3 cells expressing the rat trk gene (trk 3T3) (lane 1) or PC12 cells treated for 5 min with 100 ng/ml NGF at 37° C. (lanes 2 and 4) or mock treated (lane 3). The immunoprecipitate shown in lane 2 was prepared in the presence of the peptide used to generate the rabbit 43-4 trk antibody (Martin-Zanca et al., (1989)). Shown in FIG. 1B is the phosphoamino acid analysis of trk proteins phosphorylated in vitro in p140trk immunoprecipitates from NGF treated PC12 cells in vivo from NGF treated (+) or untreated (-) PC12 cells, or in vivo from trk 3T3 cells. The positions of phosphoserine (S), phosphothreonine (T), and phosphotyrosine (Y) are indicated. FIG. 1C, trk proteins from trk 3T3 cells phosphorylated […]. In lanes 1-3, gp140trk immunoprecipitates were probed with P-tyr antibodies. In lanes 4-6, gp140trk proteins were phosphorylated in vitro in kinase assays. Cells were treated with suramin (lanes 2 and 5) or with 500 ng/ml NGF for 10 min following suramin treatment. The band migrating at 110 kDa is a glycosylation precursor of gp140^prototrk (Martin-Zanca et al., (1989)). The band at the bottom of the figure is IgG. Molecular weight markers in kDa are indicated.
# rtrk 3T3 cells were generated by CaPO4 mediated transfection of a rat trk cDNA into NIH-3T3 cells. Rat trk cDNAs were obtained from an embryonic rat DRG cDNA library. The longest trk cDNA obtained (2.4 kbp) was missing approximately 150 bp of the coding region as compared to available mouse and human trk sequence. The missing bases plus minimal (~50 bp) 5' flanking non-coding sequences were replaced from mouse first coding exon sequences and the reconstructed gene was placed downstream of an MSV-LTR. PC12 cells or rtrk 3T3 cells (2×10^7) were labeled with ^32 P orthophosphate (1 mCi.ml in 4 ml) for 4 hr at 37° C. Cells were treated with NGF for the indicated times, washed, lysed in buffer containing 1% NP40, and the lysates immunoprecipitated with trk antibody 43-4 (D. R. Kaplan et al., Cell 61:125-133 (1990)) and electrophoresed on 7.5% SDS-PAGE gels as previously described (Kaplan et al., (1990)). For b, the phosphorylated trk bands were eluted from the gel and phosphoamino acid analysis performed as described (B. M. Sefton et al., J. Cell 24:165-174 (1981)). gp140trk protein from NGF treated PC12 cells was phosphorylated in vitro. For c, rtrk 3T3 cells were treated with 1 mM suramin in Dulbecco's Modified Eagle Medium (DMEM) for 2 h or mock treated. Following extensive washing of the cells with DMEM, NGF was added for the time indicated. Cells were lysed and the lysates were immunoprecipitated with trk antibody. Immunoprecipitates were either subjected to immunoblot analysis with the phosphotyrosine (Ptyr) monoclonal antibody 4G10 (Lanes 1-3), or were analyzed in kinase assays. (D. K. Morrison, et al. Cell 58:649-657 (1989) and Kaplan et al., (1990)). Similar amounts of trk protein were present in each lane.
# FIGS. 2A-C. Time course, growth factor specificity, and dose response of trk tyrosine phosphorylation in PC12 cells. A, Time course of trk tyrosine phosphorylation. Cells (2×10^7) were treated with 50 ng/ml NGF at 37° C. B, Effects of growth and differentiation factors on trk tyrosine phosphorylation. Cells were treated with 100 ng/ml NGF, 100 ng/ml basic fibroblast growth factor (FGF) (Boehringer Mannheim Biochemicals), 100 ng/ml epidermal growth factor (EGF) (Upstate Biotechnology, Inc.), 100 nM insulin (Sigma), or 1 μg/ml phorbal 12-myristate […] (PMA) (Sigma) for 15 min. at 37° C. C, dose response of trk tyrosine phosphorylation. […]
# T1 sequence (P35739 33-799): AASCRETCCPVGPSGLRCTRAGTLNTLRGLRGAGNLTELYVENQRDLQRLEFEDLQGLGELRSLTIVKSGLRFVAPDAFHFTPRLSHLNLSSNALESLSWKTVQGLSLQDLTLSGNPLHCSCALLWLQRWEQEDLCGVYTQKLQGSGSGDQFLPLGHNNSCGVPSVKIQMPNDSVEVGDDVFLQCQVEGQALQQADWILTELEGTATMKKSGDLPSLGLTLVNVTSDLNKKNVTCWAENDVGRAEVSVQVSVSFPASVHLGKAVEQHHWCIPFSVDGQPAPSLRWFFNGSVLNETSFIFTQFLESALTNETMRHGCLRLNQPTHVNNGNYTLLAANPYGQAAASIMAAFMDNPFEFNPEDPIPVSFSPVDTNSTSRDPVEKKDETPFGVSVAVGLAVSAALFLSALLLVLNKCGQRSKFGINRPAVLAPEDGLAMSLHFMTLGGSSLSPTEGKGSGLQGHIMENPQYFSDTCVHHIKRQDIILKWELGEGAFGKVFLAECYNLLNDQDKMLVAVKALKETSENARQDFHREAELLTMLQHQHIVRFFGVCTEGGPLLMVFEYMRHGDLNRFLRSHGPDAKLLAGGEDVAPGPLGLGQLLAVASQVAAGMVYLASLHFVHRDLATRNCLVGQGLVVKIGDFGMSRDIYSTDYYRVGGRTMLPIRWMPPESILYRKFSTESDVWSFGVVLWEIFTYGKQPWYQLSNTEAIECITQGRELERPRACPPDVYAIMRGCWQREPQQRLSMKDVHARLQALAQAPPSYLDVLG
substance,measurement,setting,value
"NGF: neurotrophic polypeptide factor, nerve growth factor; ligand of trk proto-oncogene receptor",time to maximum levels of trk tyrosine phosphorylation,"50 ng/ml NGF, 37° C.",five
same,stimulation of tyrosine phosphorylation of gp140^prototrk,"32P-orthophosphate labelled, 50 ng/ml NGF for 5 min",20 fold
same,half maximal tyrosine phosphorylation concentration,"30 min at 37° C., dose response",0.1 ng/mL
same,trk tyrosine phosphorylation after two days of treatment,"fully differentiated, two days of NGF",Residual phosphorylation was detected

# Reference: patent US6071709A, “Nerve growth factor/receptor complex” (The United States of America as represented by the …, priority 1992, dated 2000)
